We go through one variant from FireProtDB (doi:10.1021/bi702473g).

Values joined by “and” are separate entries in the source; they are usually repeats but may differ in a detail not shown here. Equal values may be shown once.

Sequences and labels used below:
B1: Azurin, P00282 (parent)
chain: MLRKLAAVSLLSLLSAPLLAAECSVDIQGNDQMQFNTNAITVDKSCKQFTVNLSHPGNLPKNVMGHNWVLSTAADMQGVVTDGMASGLDKDYLKPDDSRVIAHTKLIGSGEKDSVTFDVSKLKEGEQYMFFCTFPGHSALMKGTLTLK

The variants in one data set derive from B1. The conditions noted are these: Pseudomonas aeruginosa (strain ATCC 15692 / DSM 22644 / CIP 104116 / JCM 14847 / LMG 12228 / 1C / PRS 101 / PAO1); pH 7.5; 20 °C; GdnHCl; Fluorescence; Tris 30 mM; reversible: Yes; structure 5AZU; whole UniProt chain shown.
As for C132S, the “ddG of mutation (higher = less stable)” value was -1.57 kcal/mol and -2.09 kcal/mol and -0.96 kcal/mol; the denaturant m value is 5.21 kcal/mol/M and 5.82 kcal/mol/M and 4.73 kcal/mol/M; the “denaturant midpoint (higher = more stable)” value is 2.09 M and 1.85 M and 2.17 M; the unfolding free energy was 10.9 kcal/mol and 11.4 kcal/mol and 10.3 kcal/mol.

Staying with this data set, now noted: Pseudomonas aeruginosa (strain ATCC 15692 / DSM 22644 / CIP 104116 / JCM 14847 / LMG 12228 / 1C / PRS 101 / PAO1); pH 7.5; -15 °C; GdnHCl; Fluorescence; Tris 30 mM; NaCl 5.0 M; reversible: Yes; structure 5AZU; whole UniProt chain shown.
Turning to C132S, the denaturant m value is 6.69 kcal/mol/M and 6.81 kcal/mol/M and 5.02 kcal/mol/M; the “denaturant midpoint (higher = more stable)” value is 1.35 M and 1.38 M and 1.4 M; the unfolding free energy was 9.05 kcal/mol and 9.4 kcal/mol and 7.01 kcal/mol.
